Consider two molecules from patent US20140127211A1 (Pfizer, published 2014).

Assay [1] concerns the target T1, full-length human Notch3 expressed on the cell surface (human, UniProt Q9UM47 40-2321).
T1 construct: whole, on cells; also called hNotch3; U2OS/hNotch3
Nature of the assay: competition ELISA on U2OS/hNotch3 cells; competitor 0.8 nM biotinylated ch28.
Description: 96 well cell culture plates were seeded with U2OS/hNotch3 cells (cell culture plate, Co-star). […] After incubation for 2 hours, the plates were washed, as described above, and HRP-conjugated streptavidin (Southern Biotech) diluted 1:5000 in blocking buffer was applied. After incubation with streptavidin for 30 minutes, the plates were washed again before being developed with TMB solution for 10 minutes. […] Data plotting and analyses were performed with Microsoft Excel and Graphpad-Prism software.

Assay [2] has as its target T2, full-length mouse Notch3 expressed on the cell surface (mouse, UniProt Q61982 40-2318).
T2 construct: whole, on cells; Over-expressed on U-2 OS cells; also called U2OS/mNotch3
Description: cell-based ELISA, U2OS/mNotch3 cells.
Description: (§1) U-2 OS cells stably over-expressing human or mouse full length Notch3 protein on cell surface (hereinafter U2OS/hNotch3 and U2OS/mNotch3, respectively) were plated at 50,000 cells/well in 96 well plates (white opaque, BD/VWR) the day before ELISA assay. On the day of the ELISA, culture media was removed from wells and serially diluted (1:3 in blocking buffer) antibody solutions were applied to the plate. Plates were incubated at room temperature for 2 hours before being washed with PBS-Mg/Ca. HRP-conjugated secondary antibody was then applied and incubated with cells for 1 hour as described above for recombinant protein ELISA. Plates were washed with PBS-Mg/Ca before being developed with Pico-Chemiluminescent developing kit (Thermal Scientific), and chemiluminescence measurements were performed per manufacturer's instructions. Data plotting and analyses were performed with Microsoft Excel and Graphpad-Prism software.

The target in assay [3] is T1, full-length human Notch3 expressed on …. Nature of the assay: cell-based ELISA, U2OS/hNotch3 cells. On the technique in general: ELISA stands for enzyme-linked immunosorbent assay.
Description: as §1
Assay [4] addresses T3, human Notch3 NRR recombinant protein (Notch3 NRR_Avi_His tag) (human).
T3 construct: Purified from CHO-PACE cells; the entry includes the C-terminal Avi and His6 tag
T3 chain: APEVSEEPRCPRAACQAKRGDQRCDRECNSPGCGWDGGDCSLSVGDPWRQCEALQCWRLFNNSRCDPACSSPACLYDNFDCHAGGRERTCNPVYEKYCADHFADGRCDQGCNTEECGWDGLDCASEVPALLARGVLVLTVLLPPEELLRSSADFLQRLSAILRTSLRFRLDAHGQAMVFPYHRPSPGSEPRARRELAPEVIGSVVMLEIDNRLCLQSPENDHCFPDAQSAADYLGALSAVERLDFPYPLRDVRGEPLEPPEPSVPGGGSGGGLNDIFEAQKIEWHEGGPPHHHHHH
Nature of the assay: SPR (Biacore T100), antibody captured on anti-human IgG-Fc, Notch3 NRR as analyte, 1:1 Langmuir fit. For orientation: In SPR one partner is held on a chip, and binding of the other changes the refractive index at the surface.
Description: The kinetic constants of the anti-Notch3 NRR interactions were determined by surface plasmon resonance (Biacore® T100, Biacore Inc., Piscataway, N.J.). Flow cells of a CM5 chip were immobilized with approximately 10,000 response units (RU) of anti-human IgG-Fc (Biacore®) in 10 mM Glycine, pH 5.0 at 10 μl/min for 600 seconds. […] Association of four concentrations of human Notch3 NRR recombinant protein (from 3.7-100 nM) and a zero concentration (running buffer) at 100 μl/min were recorded for 3 minutes in TBS with 1 mM CaCl₂. Dissociation of the complexes was measured for 10 minutes. The surface of the chip was regenerated by injecting 3M MgCl₂ with 3 mM EGTA for 60 seconds at 10 μl/min. Curves obtained after subtraction of the reference and buffer signals were fitted to a 1:1 Langmuir binding model with Biacore® T100 Evaluation Software (Biacore®).

The target in assay [5] is T4, mouse Notch3 NRR recombinant protein (Notch3 NRR_Avi_His tag) (mouse).
T4 construct: The entry includes the C-terminal Avi and His tag; S1-cleaved heterodimer as for the human protein
T4 chain: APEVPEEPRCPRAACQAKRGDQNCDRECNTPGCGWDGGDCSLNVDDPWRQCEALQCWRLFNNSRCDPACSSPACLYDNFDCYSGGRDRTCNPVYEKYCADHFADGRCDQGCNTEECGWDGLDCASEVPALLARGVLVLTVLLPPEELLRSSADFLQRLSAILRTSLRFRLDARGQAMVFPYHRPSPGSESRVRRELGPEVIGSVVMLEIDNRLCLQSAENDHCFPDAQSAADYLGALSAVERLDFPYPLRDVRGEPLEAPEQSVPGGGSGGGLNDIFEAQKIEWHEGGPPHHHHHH
Nature of the assay: ELISA, plate-coated recombinant protein.
Description: (§2) Purified human or mouse Notch3 NRR recombinant proteins were coated on CoStar hi-bound 96-well ELISA plates in 100 μl of PBS with Mg/Ca at a concentration of 1 μg/ml overnight. The plates were washed with PBS-Mg/Ca and blocked for 1 hour with 1% BSA in PBS-Mg/Ca. Blocking solution was decanted from the plate and 1:3 serial dilutions of antibodies in blocking solutions were applied to the plate. After incubation at room temperature for 1 hour, plates were washed again with PBS-Mg/Can before HRP (horse radish peroxidase)-conjugated secondary antibody diluted (1:20,000) in blocking buffer was applied. When the primary antibody tested was rat IgG, the secondary antibody was goat anti-rat IgG Fc (Bethyl Biotech); and when the primary antibody was human IgG, the secondary antibody was goat anti-human IgG Fc (Southern Biotech).
(§3) After 1 hour incubation with the secondary antibody, plates were washed again, as described above, and TMB substrate solution was added. The developing reaction was allowed for 10 minutes before the stopping solution, 0.18M H₂SO₄, was added.

Assay [6] addresses T3, human Notch3 NRR recombinant protein …. Description: ELISA, plate-coated recombinant protein.
Description: as §2, §3
Assay [7] deals with T5, Notch 1-3 NRR domain swap chimera: hd2 of Notch1; A, B, C, hd1 of Notch3 (row 8, unnamed on the sheet) (human).
T5 construct: part of the NRR
Description: ELISA: NRR-Fc protein coated at 1 ug/ml, antibody applied at 5 ug/ml, goat anti-human Fc-HRP, TMB, O.D. 450 nM.
Description: (§4) After 1 hour of incubation, plates were washed with PBS with 0.9 mM Mg²⁺ and Ca²⁺, before secondary goat anti-human Fc antibody conjugated with HRP were applied and incubated on the plates. After washing again, the plates were developed with TMB and the developing reactions were stopped by adding 0.18M H₂SO₄.

In assay [8] the target is T6, Notch 1-3 NRR domain swap chimera: A of Notch1; B, C, hd1, hd2 of Notch3 (row 4, unnamed on the sheet) (human).
T6 construct: part of the NRR
The assay is described as above.
Description: as §4

Another assay has as its target Notch3-NRR (human). Described as above.
Assay [9] has as its target T7, Notch 1-3 NRR domain swap chimera: B of Notch1; A, C, hd1, hd2 of Notch3 (row 5, unnamed on the sheet) (human).
T7 construct: part of the NRR
The description is as above.
Description: as §4

The target in another assay is T8, human Notch1 NRR-Fc (human, UniProt P46531 1446-1733, limits assumed).
T8 construct: domain: NRR region; Made in CHO-PACE cells; not shown: human IgG1 Fc fragment
T8 sequence (looked up): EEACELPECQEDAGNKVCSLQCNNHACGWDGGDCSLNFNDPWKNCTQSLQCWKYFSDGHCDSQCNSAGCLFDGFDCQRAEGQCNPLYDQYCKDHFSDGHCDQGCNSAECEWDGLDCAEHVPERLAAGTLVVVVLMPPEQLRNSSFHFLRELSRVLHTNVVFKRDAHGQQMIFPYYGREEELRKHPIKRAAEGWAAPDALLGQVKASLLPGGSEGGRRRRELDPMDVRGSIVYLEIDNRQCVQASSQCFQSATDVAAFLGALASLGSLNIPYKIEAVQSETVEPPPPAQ
Described as above.

Assay [10] has as its target T2, full-length mouse Notch3 expressed on …. Description: cell-based ELISA, U-2 OS cells over-expressing mouse Notch3.
Assay [11] concerns the target T3, human Notch3 NRR recombinant protein …. Description: ELISA, recombinant protein, hybridoma supernatant.

T2 sequence (Q61982 40-2318): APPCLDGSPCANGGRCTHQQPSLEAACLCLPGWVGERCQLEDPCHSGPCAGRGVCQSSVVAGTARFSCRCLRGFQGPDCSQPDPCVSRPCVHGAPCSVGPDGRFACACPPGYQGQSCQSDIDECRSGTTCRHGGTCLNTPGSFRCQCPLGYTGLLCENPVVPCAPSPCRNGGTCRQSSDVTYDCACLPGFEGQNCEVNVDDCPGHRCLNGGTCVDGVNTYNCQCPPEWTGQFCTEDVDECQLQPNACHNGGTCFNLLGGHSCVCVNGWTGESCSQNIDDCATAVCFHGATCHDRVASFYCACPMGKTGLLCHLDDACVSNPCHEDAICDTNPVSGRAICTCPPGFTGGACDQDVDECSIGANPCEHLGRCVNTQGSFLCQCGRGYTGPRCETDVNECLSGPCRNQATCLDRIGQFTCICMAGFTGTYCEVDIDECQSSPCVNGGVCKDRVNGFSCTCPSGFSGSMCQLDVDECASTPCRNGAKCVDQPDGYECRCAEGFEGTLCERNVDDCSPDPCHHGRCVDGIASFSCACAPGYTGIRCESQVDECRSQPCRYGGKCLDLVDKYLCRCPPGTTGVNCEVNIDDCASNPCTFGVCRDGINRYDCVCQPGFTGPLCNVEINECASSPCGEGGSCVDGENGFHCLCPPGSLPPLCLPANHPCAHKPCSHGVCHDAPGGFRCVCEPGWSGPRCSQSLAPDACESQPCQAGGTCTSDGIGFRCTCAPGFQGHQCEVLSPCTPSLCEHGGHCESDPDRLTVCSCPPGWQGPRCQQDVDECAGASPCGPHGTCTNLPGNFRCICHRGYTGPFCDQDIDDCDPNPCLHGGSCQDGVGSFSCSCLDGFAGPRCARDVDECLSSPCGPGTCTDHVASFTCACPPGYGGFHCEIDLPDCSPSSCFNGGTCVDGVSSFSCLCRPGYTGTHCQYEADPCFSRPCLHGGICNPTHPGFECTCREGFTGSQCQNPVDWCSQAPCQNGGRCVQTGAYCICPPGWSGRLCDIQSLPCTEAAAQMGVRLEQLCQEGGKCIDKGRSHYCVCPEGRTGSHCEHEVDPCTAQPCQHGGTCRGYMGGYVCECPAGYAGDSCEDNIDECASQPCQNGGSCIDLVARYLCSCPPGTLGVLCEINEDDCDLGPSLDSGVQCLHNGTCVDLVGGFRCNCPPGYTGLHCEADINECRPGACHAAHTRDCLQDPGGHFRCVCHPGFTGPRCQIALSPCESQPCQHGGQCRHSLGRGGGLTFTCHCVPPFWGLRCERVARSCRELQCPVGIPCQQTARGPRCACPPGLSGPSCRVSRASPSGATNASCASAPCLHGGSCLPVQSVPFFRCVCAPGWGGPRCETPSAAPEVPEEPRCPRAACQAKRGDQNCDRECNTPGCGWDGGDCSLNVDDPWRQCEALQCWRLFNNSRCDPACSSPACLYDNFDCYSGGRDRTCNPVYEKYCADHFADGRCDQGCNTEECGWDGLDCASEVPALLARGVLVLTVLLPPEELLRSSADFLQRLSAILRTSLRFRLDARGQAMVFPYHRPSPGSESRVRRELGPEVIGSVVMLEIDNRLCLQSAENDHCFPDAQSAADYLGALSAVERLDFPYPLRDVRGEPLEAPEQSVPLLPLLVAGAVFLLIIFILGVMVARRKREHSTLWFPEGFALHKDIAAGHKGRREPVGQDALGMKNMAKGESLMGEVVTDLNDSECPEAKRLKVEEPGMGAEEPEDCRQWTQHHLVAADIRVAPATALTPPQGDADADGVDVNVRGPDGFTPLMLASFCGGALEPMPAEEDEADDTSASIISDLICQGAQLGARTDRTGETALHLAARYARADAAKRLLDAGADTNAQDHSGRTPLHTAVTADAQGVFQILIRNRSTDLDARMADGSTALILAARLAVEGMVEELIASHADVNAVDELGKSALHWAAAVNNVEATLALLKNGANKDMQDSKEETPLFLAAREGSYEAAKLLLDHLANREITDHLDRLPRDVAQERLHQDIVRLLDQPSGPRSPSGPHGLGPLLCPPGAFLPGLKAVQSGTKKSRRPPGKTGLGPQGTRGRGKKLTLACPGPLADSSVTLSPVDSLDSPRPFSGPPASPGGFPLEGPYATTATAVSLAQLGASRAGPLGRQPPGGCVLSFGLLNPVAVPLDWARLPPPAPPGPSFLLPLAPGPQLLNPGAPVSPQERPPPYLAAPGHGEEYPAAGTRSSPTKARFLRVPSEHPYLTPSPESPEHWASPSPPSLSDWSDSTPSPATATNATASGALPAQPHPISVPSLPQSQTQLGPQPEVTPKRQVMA
T1 sequence (Q9UM47 40-2321): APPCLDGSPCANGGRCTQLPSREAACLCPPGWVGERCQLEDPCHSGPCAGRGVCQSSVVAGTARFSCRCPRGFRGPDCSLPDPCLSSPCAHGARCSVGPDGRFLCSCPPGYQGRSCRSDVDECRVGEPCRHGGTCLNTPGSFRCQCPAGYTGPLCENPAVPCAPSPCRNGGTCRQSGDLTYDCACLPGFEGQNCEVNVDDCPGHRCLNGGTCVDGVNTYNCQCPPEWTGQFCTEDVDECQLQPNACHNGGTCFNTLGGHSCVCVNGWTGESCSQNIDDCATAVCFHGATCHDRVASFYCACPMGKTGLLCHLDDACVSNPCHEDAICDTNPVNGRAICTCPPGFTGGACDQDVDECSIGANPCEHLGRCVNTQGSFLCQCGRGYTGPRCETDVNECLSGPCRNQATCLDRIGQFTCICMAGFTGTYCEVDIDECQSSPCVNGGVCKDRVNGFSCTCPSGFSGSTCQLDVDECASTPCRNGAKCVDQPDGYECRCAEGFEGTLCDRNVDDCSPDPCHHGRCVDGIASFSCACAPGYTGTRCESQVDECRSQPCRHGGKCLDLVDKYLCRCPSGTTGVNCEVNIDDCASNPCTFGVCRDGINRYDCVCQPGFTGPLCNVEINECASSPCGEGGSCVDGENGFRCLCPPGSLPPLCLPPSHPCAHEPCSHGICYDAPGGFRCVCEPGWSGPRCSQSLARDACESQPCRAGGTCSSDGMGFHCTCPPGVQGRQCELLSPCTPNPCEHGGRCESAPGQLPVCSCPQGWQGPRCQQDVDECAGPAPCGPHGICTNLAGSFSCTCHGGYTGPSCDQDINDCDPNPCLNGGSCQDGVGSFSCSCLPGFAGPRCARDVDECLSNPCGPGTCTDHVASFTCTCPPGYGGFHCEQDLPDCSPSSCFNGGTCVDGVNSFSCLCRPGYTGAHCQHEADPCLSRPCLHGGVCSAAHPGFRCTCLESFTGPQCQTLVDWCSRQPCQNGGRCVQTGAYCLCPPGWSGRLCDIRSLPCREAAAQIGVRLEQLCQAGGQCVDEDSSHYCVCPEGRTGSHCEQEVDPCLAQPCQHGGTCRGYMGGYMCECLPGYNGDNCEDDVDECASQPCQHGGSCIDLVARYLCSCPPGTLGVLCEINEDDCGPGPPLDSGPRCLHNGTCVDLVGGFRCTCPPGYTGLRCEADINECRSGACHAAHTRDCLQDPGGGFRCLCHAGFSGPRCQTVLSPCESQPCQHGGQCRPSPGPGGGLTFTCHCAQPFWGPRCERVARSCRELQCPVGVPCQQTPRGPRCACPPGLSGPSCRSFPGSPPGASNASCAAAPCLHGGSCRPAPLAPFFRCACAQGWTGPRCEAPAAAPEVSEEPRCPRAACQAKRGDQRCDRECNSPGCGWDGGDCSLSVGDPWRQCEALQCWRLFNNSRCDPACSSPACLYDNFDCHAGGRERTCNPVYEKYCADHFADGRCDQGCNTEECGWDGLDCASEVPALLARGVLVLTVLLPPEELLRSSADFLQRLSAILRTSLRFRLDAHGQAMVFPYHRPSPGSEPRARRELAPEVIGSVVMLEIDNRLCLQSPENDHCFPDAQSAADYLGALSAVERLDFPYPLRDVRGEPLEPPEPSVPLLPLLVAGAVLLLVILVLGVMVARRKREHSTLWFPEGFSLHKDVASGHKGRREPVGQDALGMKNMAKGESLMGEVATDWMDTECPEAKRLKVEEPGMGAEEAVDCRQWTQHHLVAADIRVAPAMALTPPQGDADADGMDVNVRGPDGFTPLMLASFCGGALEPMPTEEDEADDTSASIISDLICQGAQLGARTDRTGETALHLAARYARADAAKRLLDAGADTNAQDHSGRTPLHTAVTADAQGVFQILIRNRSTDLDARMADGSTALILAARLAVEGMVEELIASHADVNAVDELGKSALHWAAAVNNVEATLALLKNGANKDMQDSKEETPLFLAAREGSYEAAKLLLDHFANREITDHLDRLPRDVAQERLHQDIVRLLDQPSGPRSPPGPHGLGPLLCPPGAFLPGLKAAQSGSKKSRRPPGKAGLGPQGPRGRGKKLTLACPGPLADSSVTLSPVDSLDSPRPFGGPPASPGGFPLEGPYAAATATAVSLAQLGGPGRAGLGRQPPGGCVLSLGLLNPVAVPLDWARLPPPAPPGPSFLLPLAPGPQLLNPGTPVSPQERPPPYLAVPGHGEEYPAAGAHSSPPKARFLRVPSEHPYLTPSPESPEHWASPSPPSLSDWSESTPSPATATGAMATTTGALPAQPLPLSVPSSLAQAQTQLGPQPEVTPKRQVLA
Description for Notch3-NRR: as §4
Description for human Notch1 NRR-Fc: as §4

B1: rat-human chimeric antibody 28 (ch28) (antibody, V domains shown)
VH: EVQLVESGGGLVQPGRSLTLSCVASGFTFRDYGMTWIRQAPGKGLTWVAYISSGSNYIYYAEAVKGRFTISRDNAKNTLYLQMTSLRSEDTALYFCTRRGPFVLDAWGQGASVTVSS
VL: DIQMTQSPSFLSASVGDRVTINCKASQSINRYLHWFQQKLGEAPKLLIYNANGLQTGIPSRFSGSGSGTDFTLTISSLQSEDVATYFCLQHNTWPDTFGAGTKLELK
notes: also called ch28-hIgG1; ch28-hulgG1
Take B1: the EC50 (in general, the concentration giving half of the maximal effect) in [1] is 3000 pM; in assay [2] it was 130 pM; in [3], 98 pM; in assay [5], ≤ 1000 pM; in assay [6], ≤ 1000 pM. In addition, the Kd – broadly, a measure of binding affinity in units of concentration – in [4] was determined as 610 pM. Also, the koff (as a rule, the rate constant with which the complex falls apart) in assay [4] was found to be 0.000249 s⁻¹. In assay [4], the kon (usually a measure of how fast the partners come together) stood at 409000 M⁻¹ s⁻¹. In addition, the “O.D. 450 nM (ELISA, relative binding capacity)” value in assay [7] was determined as 0.5; in [8] it was 0.15; with Notch3-NRR it was 2.06; in [9] it was 0.54. Moreover, in the assay with human Notch1 NRR-Fc, the binding result is given as “no binding (tested: 5 ug/ml)”.

B2: parental rat clone 75 (r75) (antibody, V domains shown)
VH: QVKLLQSGAALVKPGASVKMSCKASGYAFTDYWVTWVKQSHGKSLEWIGEISPNSGGTNFNEKFKGKATLTVDKSTSTAYMELSRLTSEDSAIYYCTRGEIRYNWFAYWGQGTLVTVSS
VL: NIVMTQSPKSMSISVGDRVTMNCKASQNVGNNIAWYQQKPGQSPKLLIYYASNRYTGVPDRFTGGGYGTDFTLTINSMQAEDAAFYYCQRLYNSPFTFGSGTKLEIK
notes: Rat monoclonal antibody from hybridoma, tested as hybridoma supernatant
For the molecule B2, in assay [10], the binding result was “no binding”. Also, in assay [11], the “O.D. 450 nM” value was ≥ 1 O.D. 450 nM.
